Measurements: patent US20180051287A1 (VITRISA THERAPEUTICS, published 2018)

Target: human complement Factor D present in C1q-depleted human serum (human, UniProt P00746 26-253)
Assay: cell-based or functional assay

Chain of human complement Factor D present in C1q-depleted human serum (P00746 26-253 limits assumed): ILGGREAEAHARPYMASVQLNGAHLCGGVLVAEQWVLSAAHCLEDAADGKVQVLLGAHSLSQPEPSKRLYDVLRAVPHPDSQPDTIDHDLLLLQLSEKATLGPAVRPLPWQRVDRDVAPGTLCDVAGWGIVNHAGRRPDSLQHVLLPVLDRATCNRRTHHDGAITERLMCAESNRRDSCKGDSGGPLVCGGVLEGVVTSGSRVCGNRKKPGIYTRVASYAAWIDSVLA

B1: anti-fD Fab with an amino acid sequence of heavy chain variable region according to SEQ ID NO: 71 and light chain variable region according to SEQ ID NO: 72 (Fab)
heavy: EVQLVQSGPELKKPGASVKVSCKASGYTFTNYGMNWVRQAPGQGLEWMGWINTYTGETTYADDFKGRFVFSLDTSVSTAYLQISSLKAEDTAVYYCERGGVNNWGQGTLVTVSSASTKGPSVFPLAPSSKSTSGGTAALGCLVKDYFPEPVTVSWNSGALTSGVHTFPAVLQSSGLYSLSSVVTVPSSSLGTQTYICNVNHKPSNTKVDKKVEPKSCDKTHT
light: DIQVTQSPSSLSASVGDRVTITCITSTDIDDDMNWYQQKPGKVPKLLISGGNTLRPGVPSRFSGSGSGTDFTLTISSLQPEDVATYYCLQSDSLPYTFGQGTKVEIKRTVAAPSVFIFPPSDEQLKSGTASVVCLLNNFYPREAKVQWKVDNALQSGNSQESVTEQDSKDSTYSLSSTLTLSKADYEKHKVYACEVTHQGLSSPVTKSFNRGEC
IC50 inhibiting alternative complement in human serum (fD-dependent lysis of rabbit red blood cells): 3.3 nM
